Read-outs that look alike come from different tables or passages of the source.
How the values were obtained:
[1] = target: T1, human CD123 (IL-3Rα, interleukin-3 receptor alpha chain) (human, UniProt P26951 19-378); assay: cell-based or functional assay
[2] = target: T1, human CD123 (IL-3Rα, interleukin-3 …); assay: flow cytometry on HNT-34 cells, PE-conjugated goat anti-human secondary
[3] = target: T1, human CD123 (IL-3Rα, interleukin-3 …); assay: as above; remark: listed apart in the source

T1 sequence (P26951 19-378): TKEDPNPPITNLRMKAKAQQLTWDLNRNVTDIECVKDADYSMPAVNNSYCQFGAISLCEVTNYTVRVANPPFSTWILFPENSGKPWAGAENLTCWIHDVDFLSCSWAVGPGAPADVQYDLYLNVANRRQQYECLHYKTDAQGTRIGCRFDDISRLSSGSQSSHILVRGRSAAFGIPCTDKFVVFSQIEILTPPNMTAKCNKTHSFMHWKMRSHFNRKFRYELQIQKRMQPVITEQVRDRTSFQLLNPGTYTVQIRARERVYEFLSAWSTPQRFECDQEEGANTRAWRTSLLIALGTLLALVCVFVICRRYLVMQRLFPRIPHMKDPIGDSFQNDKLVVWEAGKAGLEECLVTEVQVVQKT

B1: lysine-linked huCD123-6-IGN conjugate with DGN462 (antibody, human IgG1, kappa)
heavy: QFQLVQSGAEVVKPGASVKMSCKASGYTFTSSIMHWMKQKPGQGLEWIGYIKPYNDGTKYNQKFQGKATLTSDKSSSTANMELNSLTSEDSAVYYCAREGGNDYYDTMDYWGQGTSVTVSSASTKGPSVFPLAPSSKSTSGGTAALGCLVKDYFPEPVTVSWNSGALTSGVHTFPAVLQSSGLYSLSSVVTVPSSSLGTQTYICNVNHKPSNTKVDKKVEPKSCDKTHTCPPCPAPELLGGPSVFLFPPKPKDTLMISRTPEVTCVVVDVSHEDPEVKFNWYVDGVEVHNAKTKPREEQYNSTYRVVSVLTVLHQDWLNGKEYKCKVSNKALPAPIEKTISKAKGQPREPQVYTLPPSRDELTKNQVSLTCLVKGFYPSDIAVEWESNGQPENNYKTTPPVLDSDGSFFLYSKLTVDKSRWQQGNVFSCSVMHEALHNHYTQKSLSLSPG
light: DIQMTQSPSSMSASVGERVTITCRASQDINSYLSWFQQKPGKSPKTLIYRVNRLVDGVPSRFSGSGSGQDYSLTISSLEPEDMGIYYCLQYDAFPYTFGQGTKLEIKRTVAAPSVFIFPPSDEQLKSGTASVVCLLNNFYPREAKVQWKVDNALQSGNSQESVTEQDSKDSTYSLSSTLTLSKADYEKHKVYACEVTHQGLSSPVTKSFNRGEC
modifications: DGN462 linked at Lys residues; sites not stated; DGN462 linked at Lys residues; sites and drug load not given
IC50, in vitro cytotoxicity on EOL-1 cells (AML) [1]: 9 pM
IC50, in vitro cytotoxicity on Granta519 cells (NHL) [1]: 12 pM
IC50, in vitro cytotoxicity on HNT-34 cells (AML) [1]: 23 pM
IC50, in vitro cytotoxicity on JM-1 cells (B-ALL) [1]: 320 pM
IC50, in vitro cytotoxicity on KASUMI-3 cells (AML) [1]: 2800 pM
IC50, in vitro cytotoxicity on KCL-22 cells (CML) [1]: 2000 pM
IC50, in vitro cytotoxicity on KG-1 cells (AML) [1]: 850 pM
IC50, in vitro cytotoxicity on KO52 cells (AML) [1]: 390 pM
IC50, in vitro cytotoxicity on KOPN8 cells (B-ALL) [1]: 53 pM
IC50, in vitro cytotoxicity on MOLM-1 cells (CML) [1]: 1100 pM
IC50, in vitro cytotoxicity on MOLM-13 cells (AML) [1]: 2.2 pM
IC50, in vitro cytotoxicity on MV4-11 cells (AML) [1]: 1.6 pM
IC50, in vitro cytotoxicity on OCI-AML2 cells (AML) [1]: 140 pM
IC50, in vitro cytotoxicity on SHI-1 cells (AML) [1]: 170 pM
IC50, in vitro cytotoxicity on THP1 cells (AML) [1]: 190 pM

B2: lysine-linked huCD123-6-IGN conjugate with D3 (antibody, human IgG1, kappa)
heavy: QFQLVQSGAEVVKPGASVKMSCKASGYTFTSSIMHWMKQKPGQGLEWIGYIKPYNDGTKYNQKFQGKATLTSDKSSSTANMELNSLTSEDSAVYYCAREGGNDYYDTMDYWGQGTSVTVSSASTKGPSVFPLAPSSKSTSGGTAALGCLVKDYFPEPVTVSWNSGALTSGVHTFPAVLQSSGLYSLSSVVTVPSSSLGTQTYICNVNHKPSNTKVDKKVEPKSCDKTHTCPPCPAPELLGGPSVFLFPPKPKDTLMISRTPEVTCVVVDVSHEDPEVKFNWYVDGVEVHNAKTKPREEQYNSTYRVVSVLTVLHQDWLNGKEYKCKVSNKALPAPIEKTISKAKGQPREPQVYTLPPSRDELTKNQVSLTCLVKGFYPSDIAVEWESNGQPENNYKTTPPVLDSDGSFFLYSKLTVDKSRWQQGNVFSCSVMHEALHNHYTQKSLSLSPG
light: B1 light
modifications: D3 linked at Lys residues; sites not stated; D3 linked at Lys residues; sites and drug load not given
IC50, in vitro cytotoxicity on EOL-1 cells (AML) [1]: 3.3 pM
IC50, in vitro cytotoxicity on Granta519 cells (NHL) [1]: 2.1 pM
IC50, in vitro cytotoxicity on HNT-34 cells (AML) [1]: 3.2 pM
IC50, in vitro cytotoxicity on JM-1 cells (B-ALL) [1]: 170 pM
IC50, in vitro cytotoxicity on KASUMI-3 cells (AML) [1]: 23 pM
IC50, in vitro cytotoxicity on KCL-22 cells (CML) [1]: 950 pM
IC50, in vitro cytotoxicity on KG-1 cells (AML) [1]: 6600 pM
IC50, in vitro cytotoxicity on KO52 cells (AML) [1]: 240 pM
IC50, in vitro cytotoxicity on KOPN8 cells (B-ALL) [1]: 22 pM
IC50, in vitro cytotoxicity on MOLM-1 cells (CML) [1]: 71 pM
IC50, in vitro cytotoxicity on MOLM-13 cells (AML) [1]: 0.46 pM
IC50, in vitro cytotoxicity on MV4-11 cells (AML) [1]: 0.54 pM
IC50, in vitro cytotoxicity on OCI-AML2 cells (AML) [1]: 100 pM
IC50, in vitro cytotoxicity on SHI-1 cells (AML) [1]: 29 pM
IC50, in vitro cytotoxicity on THP1 cells (AML) [1]: 30 pM

B3: lysine-linked huCD123-6-IGN conjugate with D1 (antibody, human IgG1, kappa)
heavy: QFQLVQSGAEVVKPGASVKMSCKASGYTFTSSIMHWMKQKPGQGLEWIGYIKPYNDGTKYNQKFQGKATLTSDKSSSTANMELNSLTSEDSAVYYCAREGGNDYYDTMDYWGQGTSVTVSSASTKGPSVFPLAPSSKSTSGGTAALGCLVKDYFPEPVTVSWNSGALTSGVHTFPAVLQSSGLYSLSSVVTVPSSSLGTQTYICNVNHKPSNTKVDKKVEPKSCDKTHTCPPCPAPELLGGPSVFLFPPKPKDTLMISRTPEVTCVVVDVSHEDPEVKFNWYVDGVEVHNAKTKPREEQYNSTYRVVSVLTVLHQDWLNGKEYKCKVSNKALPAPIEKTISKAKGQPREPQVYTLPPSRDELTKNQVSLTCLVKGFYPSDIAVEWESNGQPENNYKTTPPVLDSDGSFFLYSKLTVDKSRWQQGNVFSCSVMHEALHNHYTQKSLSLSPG
light: B1 light
modifications: D1 linked at Lys residues; sites not stated; D1 linked at Lys residues; sites and drug load not given
IC50, in vitro cytotoxicity on EOL-1 cells (AML) [1]: 4.7 pM
IC50, in vitro cytotoxicity on HNT-34 cells (AML) [1]: 5.9 pM
IC50, in vitro cytotoxicity on JM-1 cells (B-ALL) [1]: 410 pM
IC50, in vitro cytotoxicity on KASUMI-3 cells (AML) [1]: 140 pM
IC50, in vitro cytotoxicity on KCL-22 cells (CML) [1]: 290 pM
IC50, in vitro cytotoxicity on KG-1 cells (AML) [1]: 4100 pM
IC50, in vitro cytotoxicity on KO52 cells (AML) [1]: 410 pM
IC50, in vitro cytotoxicity on KOPN8 cells (B-ALL) [1]: 30 pM
IC50, in vitro cytotoxicity on MOLM-1 cells (CML) [1]: 210 pM
IC50, in vitro cytotoxicity on MOLM-13 cells (AML) [1]: 1.2 pM
IC50, in vitro cytotoxicity on MV4-11 cells (AML) [1]: 1.3 pM
IC50, in vitro cytotoxicity on OCI-AML2 cells (AML) [1]: 210 pM
IC50, in vitro cytotoxicity on SHI-1 cells (AML) [1]: 32 pM
IC50, in vitro cytotoxicity on THP1 cells (AML) [1]: 58 pM

B4: huCD123-6Gv4.7S3-SeriMab-sD1 (antibody, human IgG1, kappa)
heavy: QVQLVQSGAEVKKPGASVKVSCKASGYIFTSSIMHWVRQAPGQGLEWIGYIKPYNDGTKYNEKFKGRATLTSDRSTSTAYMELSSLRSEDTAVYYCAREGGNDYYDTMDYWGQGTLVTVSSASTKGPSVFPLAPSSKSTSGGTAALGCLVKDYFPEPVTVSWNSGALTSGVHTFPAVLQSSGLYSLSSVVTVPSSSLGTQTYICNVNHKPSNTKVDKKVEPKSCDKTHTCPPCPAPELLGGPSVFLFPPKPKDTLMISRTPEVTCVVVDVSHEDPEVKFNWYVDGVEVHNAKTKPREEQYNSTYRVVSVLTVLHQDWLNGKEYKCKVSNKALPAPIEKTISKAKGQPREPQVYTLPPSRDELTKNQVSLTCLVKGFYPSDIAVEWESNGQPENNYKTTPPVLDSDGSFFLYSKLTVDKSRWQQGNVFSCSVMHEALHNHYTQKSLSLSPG
light: SIQMTQSPSSLSASVGDRVTITCRASQDINSYLSWFQQKPGKAPKTLIYRVNRLVDGVPSRFSGSGSGNDYTLTISSLQPEDFATYYCLQYDAFPYTFGQGTKVEIKRTVAAPSVFIFPPSDEQLKSGTASVVCLLNNFYPREAKVQWKVDNALQSGNSQESVTEQDSKDSTYSLSSTLTLSKADYEKHKVYACEVTHQGLSSPVTKSFNRGEC
modifications: sulfonated D1 (sD1) linked through the oxidized N-terminal Ser on the light chain; average of 2.0 D1 per antibody
notes: also called huCD123-6-SeriMab-sD1
EC50 (read off the curve) [2]: ~200 pM

B5: huCD123-6Gv4.7S3-SeriMab-D8 (antibody, human IgG1, kappa)
heavy: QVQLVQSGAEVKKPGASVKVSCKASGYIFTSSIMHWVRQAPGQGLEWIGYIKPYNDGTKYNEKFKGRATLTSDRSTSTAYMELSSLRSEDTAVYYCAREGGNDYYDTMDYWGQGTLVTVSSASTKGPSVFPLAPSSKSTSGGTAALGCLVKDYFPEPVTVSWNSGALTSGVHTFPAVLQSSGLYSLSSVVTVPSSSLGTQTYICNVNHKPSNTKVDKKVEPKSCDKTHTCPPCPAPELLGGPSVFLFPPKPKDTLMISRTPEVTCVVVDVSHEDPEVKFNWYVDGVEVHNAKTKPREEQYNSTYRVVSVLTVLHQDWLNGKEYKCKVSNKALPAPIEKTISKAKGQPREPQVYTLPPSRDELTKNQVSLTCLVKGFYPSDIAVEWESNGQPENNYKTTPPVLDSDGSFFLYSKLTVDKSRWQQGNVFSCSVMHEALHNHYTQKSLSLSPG
light: B4 light
modifications: D8 linked through the oxidized N-terminal Ser on the light chain
EC50 (read off the curve) [2]: ~200 pM

B6: huCD123-6Gv4.7S3-sSPDB-D1 (antibody, human IgG1, kappa)
heavy: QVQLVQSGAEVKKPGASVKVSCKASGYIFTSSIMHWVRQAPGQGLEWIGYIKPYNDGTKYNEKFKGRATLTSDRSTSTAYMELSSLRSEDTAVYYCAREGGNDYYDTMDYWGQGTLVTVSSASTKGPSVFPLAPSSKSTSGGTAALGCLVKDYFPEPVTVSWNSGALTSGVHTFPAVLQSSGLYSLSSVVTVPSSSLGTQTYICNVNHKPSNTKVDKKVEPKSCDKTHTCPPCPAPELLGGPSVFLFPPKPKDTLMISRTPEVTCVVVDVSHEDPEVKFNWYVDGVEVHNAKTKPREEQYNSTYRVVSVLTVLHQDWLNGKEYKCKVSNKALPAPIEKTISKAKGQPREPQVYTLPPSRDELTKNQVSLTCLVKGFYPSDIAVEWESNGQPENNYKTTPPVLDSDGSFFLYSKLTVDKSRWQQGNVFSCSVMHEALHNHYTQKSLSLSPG
light: B4 light
modifications: D1 linked at Lys residues via a sulfonated SPDB linker; sites not stated; D1 linked at Lys residues via a sulfonated SPDB linker; average of 2.9 D1 per antibody, sites not stated
notes: also called huCD123Gv4.7S3-sulfo-SPDB-D1
EC50 (read off the curve) [2]: ~100 pM

B7: huCD123-6Gv4.7S3-D2 (antibody, human IgG1, kappa)
heavy: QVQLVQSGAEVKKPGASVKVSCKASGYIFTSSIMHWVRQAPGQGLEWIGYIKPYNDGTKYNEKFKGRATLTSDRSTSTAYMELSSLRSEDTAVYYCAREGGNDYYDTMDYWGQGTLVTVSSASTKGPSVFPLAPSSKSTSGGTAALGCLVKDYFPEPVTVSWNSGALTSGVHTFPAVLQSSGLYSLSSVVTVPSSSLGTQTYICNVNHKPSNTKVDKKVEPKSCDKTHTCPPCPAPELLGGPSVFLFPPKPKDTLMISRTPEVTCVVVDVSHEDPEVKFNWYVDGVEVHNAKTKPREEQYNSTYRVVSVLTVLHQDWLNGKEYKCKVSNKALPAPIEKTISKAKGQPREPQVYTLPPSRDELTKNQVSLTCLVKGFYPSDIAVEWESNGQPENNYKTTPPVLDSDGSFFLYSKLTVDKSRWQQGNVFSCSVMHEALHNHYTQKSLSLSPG
light: B4 light
modifications: D2 linked at Lys residues; sites not stated; D2 linked at Lys residues; average of 2.9 D2 per antibody, sites not stated
EC50 (read off the curve) [2]: ~100 pM

B8: huCD123-6Gv4.7-CysMab (antibody)
heavy chain: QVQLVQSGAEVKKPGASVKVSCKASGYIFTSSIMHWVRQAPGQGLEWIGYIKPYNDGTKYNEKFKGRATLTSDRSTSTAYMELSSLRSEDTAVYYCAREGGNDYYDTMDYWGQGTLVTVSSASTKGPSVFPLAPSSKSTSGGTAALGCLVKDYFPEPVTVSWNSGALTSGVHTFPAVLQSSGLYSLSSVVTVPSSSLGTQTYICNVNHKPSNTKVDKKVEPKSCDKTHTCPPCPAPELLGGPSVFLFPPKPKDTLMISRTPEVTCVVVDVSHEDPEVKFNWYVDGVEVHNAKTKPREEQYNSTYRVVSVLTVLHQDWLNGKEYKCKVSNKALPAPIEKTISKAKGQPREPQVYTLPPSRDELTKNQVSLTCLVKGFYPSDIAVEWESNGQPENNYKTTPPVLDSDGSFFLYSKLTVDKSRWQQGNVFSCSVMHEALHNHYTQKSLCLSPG
light chain: DIQMTQSPSSLSASVGDRVTITCRASQDINSYLSWFQQKPGKAPKTLIYRVNRLVDGVPSRFSGSGSGNDYTLTISSLQPEDFATYYCLQYDAFPYTFGQGTKVEIKR
notes: Differs from m21 (huCD123-6Gv4.7) by the engineered Cys in the heavy chain CH3 domain; it is the antibody part of m29 and m30
EC50 (read off the curve) [3]: ~40 pM

Source: patent publication US20180079819A1 (IMMUNOGEN, published 2018)
